{"source": "paper PMC10875832", "about": "(2024)", "binders": {"B1": {"name": "CELO fiber1 knob (domain or fragment)", "chain": "GSSTPEVATYHCGDNLLESYDIFASLPNTNAAKVAAYCRLAAAGGVVSGTIQVTSYAGRWPKVGNSVTDGIKFAIVVSPPMDKDPRSNLSQWLGATVFPAGATTALFSPNPYGSLNTITTLPSIASDWYVPESNLVTYTKIHFKPTGSQQLQLASGELVVAAAKSPVQTTKYELIYLGFTLKQNSSGTNFFDPNASSDLSFLTPPIPFTYLGYYQ"}}, "key": {"[1]": {"biological_target": "soluble CAR D1 domain (chicken)", "test": "SPR"}, "[2]": {"biological_target": "soluble CAR D12 (chicken)", "test": "SPR"}}, "data": [{"binder": "B1", "values": [{"measurement": "Kd", "setting": "[1]", "result": 0.42, "unit": "µM"}, {"measurement": "Kd", "setting": "[2]", "result": 0.115, "unit": "µM"}]}]}
